The record followed here is patent US11673916B2, “Neuroprotective peptides and methods of their use” (University of Pittsburgh—Of the Commonwealth System of …, priority 2020, dated 2023).

This experiment addresses T1, Kv2.1 surface clusters (Rattus norvegicus, UniProt P15387).
T1 construct: expressed in transfected cells; host or cells: primary rat cortical neurons (E16-17 Sprague-Dawley), Lipofectamine 2000
T1 sequence (P15387 1-857): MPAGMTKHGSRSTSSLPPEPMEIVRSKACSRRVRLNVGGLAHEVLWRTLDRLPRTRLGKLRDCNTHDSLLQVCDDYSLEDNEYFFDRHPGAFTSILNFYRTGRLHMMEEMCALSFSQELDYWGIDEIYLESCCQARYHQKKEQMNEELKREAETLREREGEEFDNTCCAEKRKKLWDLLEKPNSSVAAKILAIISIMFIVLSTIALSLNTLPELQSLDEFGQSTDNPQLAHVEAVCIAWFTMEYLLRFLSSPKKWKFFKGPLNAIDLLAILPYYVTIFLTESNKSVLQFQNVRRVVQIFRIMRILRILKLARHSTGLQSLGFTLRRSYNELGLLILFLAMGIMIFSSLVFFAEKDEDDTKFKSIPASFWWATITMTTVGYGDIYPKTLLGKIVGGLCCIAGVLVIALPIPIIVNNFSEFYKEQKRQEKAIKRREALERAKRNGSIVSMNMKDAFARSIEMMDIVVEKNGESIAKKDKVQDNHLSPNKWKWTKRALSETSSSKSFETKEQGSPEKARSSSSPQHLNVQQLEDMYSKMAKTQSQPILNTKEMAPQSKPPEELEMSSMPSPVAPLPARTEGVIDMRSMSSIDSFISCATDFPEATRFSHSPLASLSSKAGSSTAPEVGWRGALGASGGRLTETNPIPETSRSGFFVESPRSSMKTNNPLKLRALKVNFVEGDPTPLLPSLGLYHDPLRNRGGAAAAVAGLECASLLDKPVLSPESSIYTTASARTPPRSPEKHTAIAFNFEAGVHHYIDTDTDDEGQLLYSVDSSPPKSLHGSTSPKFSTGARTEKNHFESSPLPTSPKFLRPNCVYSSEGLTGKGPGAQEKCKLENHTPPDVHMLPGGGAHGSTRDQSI
Kind of experiment: Kv2.1 surface cluster density in live Kv2.1-GFP-transfected cortical neurons treated with TAT-linked peptides. In kind it is cell-based. The conditions noted are these: 10 μM, two-hour treatment, mean±SEM (FIG. 12B). The procedure:
In vitro experiments utilized primary cortical neuronal cultures prepared from embryonic day 16-17 Sprague-Dawley rats of either sex in a protocol described previously (McCord et al., J Physiol (Lond). 592: 3511-3521, 2014). Timed-pregnant rats (Charles River Laboratories, Wilmington, Mass.) were sacrificed by CO2 inhalation. Embryonic cortices were dissociated with trypsin (0.6 mg/mL) and cells plated in sterile 6-well plates on poly-L-ornithine-coated glass coverslips at a density of 670,000 cells per well. Cytosine arabinoside (1-2 μM) was utilized to inhibit non-neuronal proliferation on day 14 in vitro (DIV); cultures were utilized at 21-25 DIV.
; Invitrogen, Carlsbad, Calif.). […]
To analyze Kv2.1 distribution in live primary cortical neurons, cells were transfected with both a tdTomato construct and a GFP-tagged Kv2.1 construct (O'Connell, et al., J Neurosci. 26: 9609-9618, 2006) and imaged on a Nikon A1+ confocal microscope (Nikon, Tokyo, Japan). […] For live images of transfected neurons, object count parameters were customized to define a Kv2.1 cluster as an area of high intensity GFP fluorescence (compared to background), measuring 0.05 μm^2 or larger (Schulien et al., J Physiol (Lond). 594: 2647-2659, 2016). Kv2.1 cluster density was calculated by normalizing the number of Kv2.1 clusters counted to the somatic area of each neuron (#Kv2.1 clusters/μm^2). […]

Regarding “YGRKKRRQRRRDIDDFTD [TAT-DP-2D, TAT-linked peptide containing serine to aspartate mutations]”, the “mean Kv2.1 surface cluster density” value is 0.08±0.02 #Kv2.1 clusters/μm^2 of neuronal soma.

Turning to “YGRKKRRQRRRAIDAFTA [TAT-DP-2A, TAT-linked serine to alanine mutant of DP-2]”, the “mean Kv2.1 surface cluster density” value was 0.14±0.02 #Kv2.1 clusters/μm^2 of neuronal soma.
